Test results taken from patent publication US20170368150A1, “METHODS OF TREATING PULMONARY SARCOIDOSIS” (GOTHAM BIOPHARMACEUTICALS, INC., priority 2014, published 2017).

How the values were obtained:
[1] = test system: patient with chronic pulmonary sarcoidosis; assay: n=1 long-term clinical treatment of a chronic pulmonary sarcoidosis patient with PULMOZYME; type: in vivo
Description: At times, the patient was bedridden, dyspneic, and could not climb stairs or walk more than 10 feet. Steroids had been prescribed by pulmonary specialists; however the side effects of steroid therapy (diabetes, weight gain, memory loss, mental confusion, crippling joint pain) were intolerable. The patient's pulmonary sarcoidosis was deemed ultimately refractory to steroid therapy, which was discontinued, leaving essentially no therapeutic options for this patient.
PULMOZYME® was prescribed to the patient by a licensed medical practitioner to initiate treatment.
The extended clinical timeline described above allowed for a distinction between remission and stabilization of the disease to be made. […] This was done on an annual basis for the patient described above for the typical “survival window” (8-14 years for patients with progressive, chronic disease).
The clinical timeline for treatment of the patient described above with PULMOZYME® is represented diagrammatically in FIG. 3 during pretreatment and for the entire treatment interval.

[2] = test system: bronchiectasis patients; details: large clinical trial; cited from earlier work
[3] = more than 10 years of treatment

B1: dornase alfa (protein, listed as Homo sapiens)
chain: LKIAAFNIQTFGETKMSNATLVSYIVQILSRYDIALVQEVRDSHLTAVGKLLDNLNQDAPDTYHYVVSEPLGRNSYKERYLFVYRPDQVSAVDSYYYDDGCEPCGNDTFNREPAIVRFFSRFTEVREFAIVPLHAAPGDAVAEIDALYDVYLDVQEKWGLEDVMLMGDFNAGCSYVRPSQWSSIRLWTSPTFQWLIPDSADTTATPTHCAYDRIVVAGMLLRGAVVPDSALPFNFQAAYGLSDQLAQAISDHYPVEVMLK
pulmonary disease symptoms (dyspnea, inspissated secretions) on discontinuation of therapy ([1]; annual 2-week discontinuation, resolved upon resumption (2.5 mg qd 4x weekly)): worsened | arterial O2 saturation (finger pulse oximetry) ([1]; at present, on room air): 98% | Arterial oxygenation via pulse oximetry, SaO2 ([1]; currently measured on room air, low of 70% in pre-treatment interval): 99% | Chest physical therapy with postural drainage ([1]; during PULMOZYME therapy): none required | General quality of life ([1]; during PULMOZYME therapy): vastly improved | Rib fractures and abdominal hernias ([1]; during PULMOZYME therapy): none | Granuloma formation/expectoration ([1]; during treatment): occasional | sarcoid skin involvement ([1]; during treatment): unchanged | Remission of disease ([1]; judged by annual 14-day discontinuation): not evident | Emergency room visits and hospitalizations relating to pulmonary sarcoidosis [1, 3]: none | Pulmonary exacerbations (pneumonia) [1, 3]: not been a single pulmonary exacerbation and none | routine chest x-rays during treatment ([1]; scarring not progressed to more severe disease): improvement | Blood chemistry, liver and kidney function during treatment ([1]; single patient): normal | Exercise tolerance during treatment ([1]; single patient): unlimited | Coughing, wheezing, dyspnea ([1]; single patient, continued therapy 3-4 days/week): none | Adverse events / side effects relating to PULMOZYME ([1]; single patient, long-term treatment (more than 10 years; over 12 years)): complete absence of side effects and without side effects or incident and none | benefit of treatment in bronchiectasis [2]: failed to demonstrate any benefit | safety of treatment in bronchiectasis [2]: potentially harmful
